The values below come from PMC10376177, “Comparison of Fungal Thermophilic and Mesophilic Catalase–Peroxidases for Their Antioxidative Properties” (Antioxidants, 2023).

The data set concerns the molecule itself. As to the kind of experiment: native gel or EMSA.

B1: MagKatG1, mesophilic catalase–peroxidase from Magnaporthe oryzae (enzyme)
chain: MGECPLRTANVAGGGTRNRDWWPNTLKLNILRQHTEATNPYDPNFDYAEAFKSLDYEGLKKDLRALMTDSQEYWPADFGHYGGLFVRMAWHSAGTYRVMDGRGGGGQGQQRFAPLNSWPDNVSLDKARRLLWPIKQKYGNKISWADLMLLTGNVALEDMGFKTFGFAGGRPDTWEADESTYWGGETTWLGNEVRYSSGNEGHKESGVIDGSESKKGHKDIHTRDLEKPVSAAHMGLIYVNPEGPDGIPDPVAAARDIRTTFSRMAMNDEETVALIAGGHTVGKTHGAAPSDNVGPEPEAAPIENQGLGWSNKHGSGKGPDTITSGLEVIWTKEPAKFTMNYLEYLFKYEWELTKSPAGANQWVAKNAEEFIPDAFDPSKKHKPRMLTTDLSLRFDPEYEKISRRFLENPEQFKDAFARAWFKLLHRDMGPRSRWLGPEVPKETLLWEDPIPTPDHPIIDGSDVDSLKKAILATGVAPSKLIQTAWASASTFRGGDKRGGANGARIRLEPQNKWEVNNPQQLAEVLKALEGVKADFEKSGKKVSIADLIVLAGVAAVEQAAGVPVPFTPGRGDATQEQTDVESFTHLEPAADAFRNYGKGTSRVTTEQIMVDRAQQLTLTAPELTVLVGGLRVLGANYDGSSHGVWTDKPGKLTNDFFVTLLDPYTSWKSVDGEVFEGTNSKSGKKLTGTRADLVFGSHSELRALAEVYGSADGQQKFTKDFVAAWDKVMNLDRFDVRRGIYDETRLKSKL
notes: also called Magnaporthe oryzae katG
As to B1, the “stoichiometry N” value amounted to 2.
